B1: Ic_S4_P4E.1_K4.1_C4.1_H4.1_A4.1_[T5C]_F4.1_[T8A]_[A9T]_T4.1 (ssRNA)
RNA: UUUGACAACUGAUCGUUCUUUCUUGUACAUAUUUCUUUCUCGAUCAGUUGUCUUU
B2: Ic_S4_P4E.1_K4.1_C4.1_H4.1_A4.1_[T5A]_[A6C]_[T7C]_F4.1_[T8C]_[A9T]_T4.1 (ssRNA)
RNA: UUUGACAACUGAUCGUUCUUUCUUGUAACCCUUUCUUUCUCGAUCAGUUGUCUUU
B3: Ic_S4_P4E.1_K4.1_C4.1_H4.1_A4.1_[T5A]_[A6C]_F4.1_T4.1 (ssRNA)
RNA: UUUGACAACUGAUCGUUCUUUCUUGUAACUUAUUCUUUCUCGAUCAGUUGUCUUU
B4: Ic_S4_P4E.1_K4.1_C4.1_H4.1_A4.1_[T5A]_[A6C]_F4.1_[A9G]_T4.1 (ssRNA)
RNA: UUUGACAACUGAUCGUUCUUUCUUGUAACUUGUUCUUUCUCGAUCAGUUGUCUUU
B5: Ic_S4_P4E.1_K4.1_C4.1_H4.1_A4.1_[T5A]_[A6C]_[T7A]_F4.1_[T8G]_[A9C]_T4.1 (ssRNA)
RNA: UUUGACAACUGAUCGUUCUUUCUUGUAACAGCUUCUUUCUCGAUCAGUUGUCUUU
B6: Ic_S4_P4E.1_K4.1_C4.1_H4.1_A4.1_[T5C]_F4.1_[T8A]_T4.1 (ssRNA)
RNA: UUUGACAACUGAUCGUUCUUUCUUGUACAUAAUUCUUUCUCGAUCAGUUGUCUUU
B7: Ic_S4_P4E.1_K4.1_C4.1_H4.1_A4.1_[T5A]_[A6C]_F4.1_[T8G]_[A9T]_T4.1 (ssRNA)
RNA: UUUGACAACUGAUCGUUCUUUCUUGUAACUGUUUCUUUCUCGAUCAGUUGUCUUU
B8: Ic_S4_P4E.1_K4.1_C4.1_H4.1_A4.1_[T5A]_[A6C]_[T7C]_F4.1_T4.1 (ssRNA)
RNA: UUUGACAACUGAUCGUUCUUUCUUGUAACCUAUUCUUUCUCGAUCAGUUGUCUUU
B9: Ic_S4_P4E.1_K4.1_C4.1_H4.1_A4.1_[T5A]_[A6C]_[T7G]_F4.1_[T8G]_[A9T]_T4.1 (ssRNA)
RNA: UUUGACAACUGAUCGUUCUUUCUUGUAACGGUUUCUUUCUCGAUCAGUUGUCUUU
B10: Ic_S4_P4E.1_K4.1_C4.1_H4.1_A4.1_[T5A]_[A6C]_F4.1_[T8A]_[A9T]_T4.1 (ssRNA)
RNA: UUUGACAACUGAUCGUUCUUUCUUGUAACUAUUUCUUUCUCGAUCAGUUGUCUUU
B11: Ic_S4_P4E.1_K4.1_C4.1_H4.1_A4.1_[T5A]_[A6T]_[T7G]_F4.1_[T8C]_[A9C]_T4.1 (ssRNA)
RNA: UUUGACAACUGAUCGUUCUUUCUUGUAAUGCCUUCUUUCUCGAUCAGUUGUCUUU
B12: Ic_S4_P4E.1_K4.1_C4.1_H4.1_A4.1_[T5C]_F4.1_[A9C]_T4.1 (ssRNA)
RNA: UUUGACAACUGAUCGUUCUUUCUUGUACAUUCUUCUUUCUCGAUCAGUUGUCUUU
B13: Ic_S4_P4E.1_K4.1_C4.1_H4.1_A4.1_[T5C]_F4.1_[A9G]_T4.1 (ssRNA)
RNA: UUUGACAACUGAUCGUUCUUUCUUGUACAUUGUUCUUUCUCGAUCAGUUGUCUUU
B14: Ic_S4_P4E.1_K4.1_C4.1_H4.1_A4.1_[T5A]_[A6C]_F4.1_[T8C]_[A9G]_T4.1 (ssRNA)
RNA: UUUGACAACUGAUCGUUCUUUCUUGUAACUCGUUCUUUCUCGAUCAGUUGUCUUU
B15: Ic_S4_P4E.1_K4.1_C4.1_H4.1_A4.1_[T5A]_[A6C]_F4.1_[T8A]_[A9C]_T4.1 (ssRNA)
RNA: UUUGACAACUGAUCGUUCUUUCUUGUAACUACUUCUUUCUCGAUCAGUUGUCUUU
B16: Ic_S4_P4E.1_K4.1_C4.1_H4.1_A4.1_[T5A]_[A6C]_[T7G]_F4.1_[T8G]_[A9C]_T4.1 (ssRNA)
RNA: UUUGACAACUGAUCGUUCUUUCUUGUAACGGCUUCUUUCUCGAUCAGUUGUCUUU
B17: Ic_S4_P4E.1_K4.1_C4.1_H4.1_A4.1_[T5A]_[A6C]_[T7C]_F4.1_[A9T]_T4.1 (ssRNA)
RNA: UUUGACAACUGAUCGUUCUUUCUUGUAACCUUUUCUUUCUCGAUCAGUUGUCUUU
B18: Ic_S4_P4E.1_K4.1_C4.1_H4.1_A4.1_[T5A]_[A6C]_[T7A]_F4.1_[T8C]_[A9C]_T4.1 (ssRNA)
RNA: UUUGACAACUGAUCGUUCUUUCUUGUAACACCUUCUUUCUCGAUCAGUUGUCUUU
B19: Ic_S4_P4E.1_K4.1_C4.1_H4.1_A4.1_[T5A]_[A6C]_[T7A]_F4.1_[T8G]_[A9T]_T4.1 (ssRNA)
RNA: UUUGACAACUGAUCGUUCUUUCUUGUAACAGUUUCUUUCUCGAUCAGUUGUCUUU
B20: Ic_S4_P4E.1_K4.1_C4.1_H4.1_A4.1_[T5A]_[A6C]_F4.1_[T8C]_T4.1 (ssRNA)
RNA: UUUGACAACUGAUCGUUCUUUCUUGUAACUCAUUCUUUCUCGAUCAGUUGUCUUU
B21: Ic_S4_P4E.1_K4.1_C4.1_H4.1_A4.1_[T5A]_[A6C]_[T7C]_F4.1_[A9G]_T4.1 (ssRNA)
RNA: UUUGACAACUGAUCGUUCUUUCUUGUAACCUGUUCUUUCUCGAUCAGUUGUCUUU
B22: Ic_S4_P4E.1_K4.1_C4.1_H4.1_A4.1_[T5A]_[A6C]_[T7C]_F4.1_[T8G]_[A9C]_T4.1 (ssRNA)
RNA: UUUGACAACUGAUCGUUCUUUCUUGUAACCGCUUCUUUCUCGAUCAGUUGUCUUU
B23: Ic_S4_P4E.1_K4.1_C4.1_H4.1_A4.1_[T5A]_[A6C]_[T7G]_F4.1_T4.1 (ssRNA)
RNA: UUUGACAACUGAUCGUUCUUUCUUGUAACGUAUUCUUUCUCGAUCAGUUGUCUUU
B24: Ic_S4_P4E.1_K4.1_C4.1_H4.1_A4.1_[T5A]_[A6C]_F4.1_[T8C]_[A9T]_T4.1 (ssRNA)
RNA: UUUGACAACUGAUCGUUCUUUCUUGUAACUCUUUCUUUCUCGAUCAGUUGUCUUU
B25: Ic_S4_P4E.1_K4.1_C4.1_H4.1_A4.1_[T5A]_[A6C]_[T7A]_F4.1_T4.1 (ssRNA)
RNA: UUUGACAACUGAUCGUUCUUUCUUGUAACAUAUUCUUUCUCGAUCAGUUGUCUUU
B26: Ic_S4_P4E.1_K4.1_C4.1_H4.1_A4.1_[T5A]_[A6C]_[T7G]_F4.1_[T8C]_[A9T]_T4.1 (ssRNA)
RNA: UUUGACAACUGAUCGUUCUUUCUUGUAACGCUUUCUUUCUCGAUCAGUUGUCUUU
B27: Ic_S4_P4E.1_K4.1_C4.1_H4.1_A4.1_[T5A]_[A6C]_[T7A]_F4.1_[T8A]_[A9C]_T4.1 (ssRNA)
RNA: UUUGACAACUGAUCGUUCUUUCUUGUAACAACUUCUUUCUCGAUCAGUUGUCUUU
B28: Ic_S4_P4E.1_K4.1_C4.1_H4.1_A4.1_[T5A]_[A6C]_[T7G]_F4.1_[A9T]_T4.1 (ssRNA)
RNA: UUUGACAACUGAUCGUUCUUUCUUGUAACGUUUUCUUUCUCGAUCAGUUGUCUUU
B29: Ic_S4_P4E.1_K4.1_C4.1_H4.1_A4.1_[T5A]_[A6C]_F4.1_[T8A]_[A9G]_T4.1 (ssRNA)
RNA: UUUGACAACUGAUCGUUCUUUCUUGUAACUAGUUCUUUCUCGAUCAGUUGUCUUU
B30: Ic_S4_P4E.1_K4.1_C4.1_H4.1_A4.1_[T5A]_[A6C]_[T7G]_F4.1_[A9C]_T4.1 (ssRNA)
RNA: UUUGACAACUGAUCGUUCUUUCUUGUAACGUCUUCUUUCUCGAUCAGUUGUCUUU
B31: Ic_S4_P4E.1_K4.1_C4.1_H4.1_A4.1_[T5A]_[A6C]_[T7A]_F4.1_[A9C]_T4.1 (ssRNA)
RNA: UUUGACAACUGAUCGUUCUUUCUUGUAACAUCUUCUUUCUCGAUCAGUUGUCUUU

In general, Kd refers to the free concentration of one partner at which half of the binding sites on the other are occupied at equilibrium, for simple one-to-one binding. A lower Kd goes with a tighter complex.

The target of the data set is T1, PUF4 RNA-binding domain (Saccharomyces cerevisiae, UniProt P25339 537-888).
T1 sequence: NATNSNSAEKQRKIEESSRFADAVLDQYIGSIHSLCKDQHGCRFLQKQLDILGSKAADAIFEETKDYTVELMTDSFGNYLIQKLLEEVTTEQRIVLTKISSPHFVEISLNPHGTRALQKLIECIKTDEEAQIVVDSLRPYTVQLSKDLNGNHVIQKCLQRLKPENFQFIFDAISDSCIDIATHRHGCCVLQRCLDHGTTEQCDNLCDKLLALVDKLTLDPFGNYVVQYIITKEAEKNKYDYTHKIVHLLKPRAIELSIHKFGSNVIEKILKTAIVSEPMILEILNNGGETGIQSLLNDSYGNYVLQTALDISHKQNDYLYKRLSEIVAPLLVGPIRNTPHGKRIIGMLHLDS
The data set can be described thus: Mg; RNA-MaP; 20 mM Na-HEPES pH 7.4, 30 mM KOAc, 0.75 mM MgCl2, 0.1% Tween-20, 5% glycerol, 0.1 mg/mL BSA, 2 mM DTT; 25 C; 0.0125-409.6 nM protein. The conditions noted are these: tags: N-His6-TEV cleaved; C-SNAP kept, Cy3B-labelled; label: tethered on chip by stalled RNA polymerase.
With UCUCUUUGUAUAUGUCUCUU (ssRNA) [Ia_S1_P3E.1_K3.1_C3.1_H3.1_A3.1_F3.1_[A8G]_T3.1], binding was characterised by a dissociation constant (Kd) of 17 nM.

B1 yielded a Kd of 1.55 nM.

Molecule B2 gave a Kd of 225 nM.

The molecule B3 registered a Kd of 3.93 nM.

Take B4: the Kd was 84.8 nM.

For the molecule B5, the equilibrium dissociation constant (Kd) came to 879 nM.

As to B6, the Kd came to 2.32 nM.

For the molecule B7, the Kd stood at 95.2 nM.

Consider B8, for which binding was put at a Kd of 5.74 nM.

For the molecule B9, the Kd was found to be 1290 nM.

Molecule B10 showed a Kd of 49.4 nM.

B11 showed a Kd of 1200 nM.

As for B12, binding was characterised by a dissociation constant (Kd) of 3.55 nM.

Regarding B13, the Kd came to 3.85 nM.

For the molecule B14, binding was characterised by a dissociation constant (Kd) of 577 nM.

B15 gave a Kd of 287 nM. Compared with the last molecule, the Kd is about 2-fold lower.

Take B16: the Kd is above 2300 nM.

As for B17, the affinity, expressed as Kd, was 31.1 nM. This lies in the double-digit nanomolar range.

Regarding B18, binding was put at a Kd of 215 nM.

Molecule B19 showed a Kd of 604 nM.

On to B20, for which the Kd turned out to be 281 nM.

Molecule B21 registered a Kd of 44.1 nM.

Consider B22, for which binding was put at a Kd of 927 nM.

B23 had a Kd of 14.5 nM.

In turn, B24 yielded a Kd of 72 nM.

Turning to B25, the equilibrium dissociation constant (Kd) is 1.34 nM.

B26 displayed a Kd of 205 nM.

Molecule B27 came in with a Kd of 1050 nM.

Molecule B28 displayed a Kd of 84.3 nM.

B29 came in with a Kd of 653 nM.

B30 returned a dissociation constant (Kd) of 919 nM. The Kd values of the last two molecules are within 1.5-fold of each other.

On to B31, for which the Kd came to 22.5 nM. This Kd lies about 41-fold lower than the previous one.

UCUCUUUGUAUUUCAUCUCUU (ssRNA) [Ib_S1_P4E.1_K4.1_C4.1_H4.1_A4.1_[A6T]_F4.1_[T8C]_T4.1]: the affinity, expressed as Kd, was 69.6 nM.

For UCUCUUUGUAUCUCAUCUCUU (ssRNA) [Ib_S1_P4E.1_K4.1_C4.1_H4.1_A4.1_[A6C]_F4.1_[T8C]_T4.1], the Kd amounted to 34.6 nM.

With UCUCUUUGUAUGUCAUCUCUU (ssRNA) [Ic_S1_P4E.1_K4.1_C4.1_H4.1_A4.1_[A6G]_F4.1_[T8C]_T4.1], the Kd was found to be 384 nM.

The molecule UCUCUUUGUCUAUUAUCUCUU (ssRNA) [Ia_S1_P4E.1_K4.1_C4.1_H4.1_[A4C]_A4.1_F4.1_T4.1] yielded a Kd of 12.7 nM.

Values taken from PMC9352680, “A comprehensive thermodynamic model for RNA binding by the Saccharomyces cerevisiae Pumilio protein PUF4”.
